Assay: yeast display, Sf9 membrane polyspecificity reagent, FACS + sequencing; frameworks hold sequencing errors
Procedure, shortened: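 Sorting gates, low and high (top ~1%), were placed on anti-HA fluorescence to track expression and on streptavidin fluorescence to track reagent binding. A clone's polyreactivity label is taken from the gate it came out of. The reagent was 10% biotinylated, detergent-solubilized Sf9 membrane, applied for 1 hour at 4 °C to galactose-induced yeast display cells.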

Row | Sequence | polyreactivity (PSR sort gate)
1 | QVQLVESGGGLVQAGGSLRLSCAASGRICWGYAMGWSRQAPGKERELVARITSGGDTYYADSVKGRFTISRDNAKNTVYLQMNSLKPEDTAVYYCAKSPAVKPYAYRESGFIYDYWGQGTQVTVSS | low polyreactivity
2 | QVQLVESGGGLVQAGGSLRLSCAASGSIFKRNAMGWYRQAPGKERELVAAIRVNGGITYYADSVKGRFTISRDNAKNTVFLQMNSLKPEDTSVYYCAVYSRQGLGYWGQGTQVTVSS | high polyreactivity
3 | QVQLVESGGGLVQAGGSLSLSCAASGRTFDTYAMGWYRQAPGKERELVASITQSGGTTYYADSVKGRFTISRDNAKNTVYLQMNSLKPEDTAVYYCAARSYGSTSPIRVQLYYWGQGTQVTVSS | high polyreactivity
4 | QVQLVESGGGLVQAGGSLRLSCAASGRIFNEYGMGWYRQAPGKERELVAAITDGTTTYYADSVKGRFTISRDNAKNTVYLQMNSLKPEDTAVYYCAASSTWYGYYIFVFRAYDYWGQGTQVTVSS | low polyreactivity
5 | QVQLVESGAGLVQAGGSLRLSCAASGSIFYYYAMGWYRQAPGKEREFVAAIRESGGSTYYADSVKGRFTISRDNAKNTVYLQMNSLKPEDTAVYYCAVRRPRRNYNYPYDYWGLGTQVTVSS | low polyreactivity
6 | QVQLVESGGGLVQAGGSLRLSCAASGSTFNAYAMGWYRQAPGKERELVADISFSGGTYYADSVKGRFTISRDNAKNTVYLQMNSLKPEDTAVYYCSAESRWRSSAGGYYYWGQGTQVTVSS | low polyreactivity
7 | QVQLVESGGGLVQAGGSLRLSCAASGSIFTVNAMGWYRQAPGKEREFVAAITGGGTSTYYADSVKGRFTISRDNAKNTVYLQMNSLKPEDTAVYYCAATTYHYSPTYGYWGQGTQVTVSS | low polyreactivity
8 | QVQLVESGGGLDQAGGSLRLSCAASGFTFGSNAMGWYRQAPGKERELVASITTRGGSTYYADSVKGRFTISRDNANNTVYLQMNSLKPEDTAVYYCAARARYPNWTYYYWGQGTQVTVSS | high polyreactivity
9 | QVQLVESGGGVVQAGGSLRLSCAASGRTSGSYAMGWYRQAPGNERELVAVITTSDGSTYYADSVKGRFTISRDNAKNTVYLQMNSLKPEDTAVYYCNVDYPNLWYDSYYYWGQGTQVTVSS | low polyreactivity
10 | QVQLVESGGGLVQAGGSLRLSCAASASTFSTYAMGSYRQAPGKERELVAAISWSGGSTNYADSVKGRLTISRDIAKYTVYLQMNSLKPEDTAVYYCGARWTSRYDYWGQGTQVTVSS | high polyreactivity
11 | QVQLVESGGGLVQAGGSLRLSCAASGSIFTRYAMGWYRQAPGKERELVAVISVSGGRTYYADSVKGRFTISRDNAKNTVYLQMNSLKPEDTAVYYCAVGVLYAGYFYRYRYYYWGQGTQVTVSS | high polyreactivity
12 | QVQLVESGGGLVQAGGSLRLSCAASGGIFLRYSMGWYRQAPGKERELVAAITANGGSTYYADSVKGRFTISRDNAKNTVYLQMISMKPEDTAVYYCNADSFPALNKRGYDYWGQVTQVTVSS | low polyreactivity
13 | QVQLVESGGGLVQAGGSLRLSCAASGSTFDYNAMGWYRQAPGKERELVAAISRGGNTYYADSVKGRFTISRDNAKNTVYLQMNSLKPEDTAVYYCAKDSYGSYRFVRKRQKAYGYWGQGTQVTVSS | low polyreactivity
14 | QVQLVESGGRLVQAGASLRLSCAASGSTFSTNAMGWYRQAPGKEREFVPAISRSGGRTYYADSVKGRFTISRDNAKNTVYLQMNSLKRDDTAVYYCAAGITHEGRDGDYWGQGTQVTVSS | high polyreactivity
15 | QVQLGESGGGLVQAGGSLRLSCAASGFIFSYNAMGWYRQAPWKERELVAAISWRGGSTYYADSVKGRFTISRDNAKNTVYLQMNSLKPEDTAVYYCAAYLWRLWPSGYYYWGQGTQVTVSS | high polyreactivity
16 | QVQLVESGGGLVQAGGSLRLSCAASGLTFNYYAMGWSRPAPGKERELVAAISSDGRTDYADSVKGRFTISRDNAKNTVYLQMNSLKPEDTAVSYCAASWYRWGKSWRQYDYWGQGTQVTVSL | low polyreactivity

Row | Sequence | polyreactivity (PSR sort gate)
17 | QDQLVESGGGLVQAGGSLRLSCAASGITFPNYAMGWYGQAPGKERELVAAISRGDSTYYADSVKGRFTISRDNAKNTVYLQMNSLKPEDTAVYYCAARYGRYWSSSGSWTPYGYWGQGTQVTVSS | high polyreactivity
18 | QFQLVESGGGLVHAVGSLRLSCAASGRTGKNAMGWYRQAPGKERELVAAIRYNGGSTYYADSVKGRFTISRDNAKNSVYLQMNSLKPEDTAVYYCAAAFRRHNGSAFNYWGQGTQVTVSS | high polyreactivity
19 | QVQLVETGGGLVHAGGSLRLSCAASGSIFQGHAMGWYRQAPGKERELVAAISRNGGRTYYADSVKGRFTISRDNAKNTVYLQMNSLKPEDTAVYYCAAYHNVEYDYWGQGTQVTVSS | high polyreactivity
20 | QVQLVESAGGLVQAGGSLRLSCAASGGIFGINAMGWYRQAPGKERELVAAINLSGGRTYYADSVKGRFTISRDNAKNTVYLQMNSLKPEDTAVYYCAAFYGYSLYGHYEYWGQGTQVTVSS | high polyreactivity
21 | QVQLVESGGGLVQAGGSLRLSCAASVSIFKGYAMGWYRQAPGKERELVAAITGSDGSTYADSVKGRFTISRDNAKNTVYLQMNSLKPEDTAVYYCNTGGWTRYRPPGYEWNWYDYWGQGTQVTVSS | low polyreactivity
22 | QVQLVESGGGLVQAGGSLRLSCAASGSTFLKYTMGWYRQAPRKDRELVAGITRSSRSTYYADSVKGRFTISRDNAKYTVYLQMNSLKPEDTAVYYCAATVYLYTDLAYYWFGYWGQGTQVTVAS | high polyreactivity
23 | QVQLVESGGGLVQAGGSLRLSCAASGRIFKENAMGWYRQAPGKERELVAAISSGASTSYADSVKGRFTISRDNAKNTVYLQMNSLKPEDTAVYYCNRGGDLYYPGWLFDYWGQGSQVTVSS | low polyreactivity
24 | QVQLVESGGGLVQAGGSLRLSCAASGSTFSYYAMGWYRQAPGKERELVAAISSRGGSTYYADSVKGRFTISRDNAMNNVYLQMNSLKPEDTAVYFCNADHQFRSSVSGDHDFWGQGTQVTVSS | high polyreactivity
25 | QVQLVESGGGLVQAGGSLRLSCAASGLIFGGNAMGWYRQAPGKERELVAAISRSTGRTYYADSVKGRFTISRDTAKNTVYLQMNSLKPEDTAVYYCNAVGYAFPSYDSWGQGTQVTVSS | high polyreactivity
26 | QVQLVESGGGLVQAGGSLRLSCAASGFIFYRNTMGWYRQAPGKERELVAANSVSGGSTNYADSVKGRFTISRDNAKNTVYLQMNSLKPEDSAVYYCAARVRDSLVYGGWDDYWGQGTQVTVSS | high polyreactivity
27 | QDQLVESGGGLVQAGGSLRLSCAASGRTIVLNPMGWYRQAHGKERELVAAISSGGSTNYADSVKGRFTISRDNAKNTVYLQMNSLNPEDTAVYYCAGQDVNLYSAYYYWGQGTQVTVSS | low polyreactivity
28 | QVQLVESGGGLVQGGGSLRLSCAASGLIFARNAMGWYRQAPGKERELVAAISKRGGSTFYADSVKGRFTISRDNAKKTVYLQMNSLKPEDTAVYYCHARSSETWHGDYWGQGTQLTVSS | high polyreactivity
29 | QVQLVESGGGLVQAGGSLRLSCAASGFTFPYYAMGWYRQAPGKERDLVARISSGGSTNYADSVKGRFTISRDNAKNTVYLQMNSLKPEDTAVYYCNKVRTVTTYEYWGQGTQVTVSS | high polyreactivity
30 | QVQLVESGGGLVQAGGSLRLRCAASGRIFAPYAMGRYRQAPWKERELVAAIDGSGGSTYYADSVKGRFTISRDNAKNTVYLQMNSLKPEDTAVYYCANRGYYRSQRWYGYWGQGTQVTVSS | high polyreactivity
31 | QVQLVESGGGLVQAGGSLRLSCAASGNIFQKYAMGWYRQAPGKERELVAAIRRGDRTYADSVKGRFTISRDNAKNTVYLQMISLKPEDTAVYYCAAPQVWWGYYTRGVDYWGQGTQVTVSS | low polyreactivity

From the nanobody polyreactivity screen of Harvey et al. (2022)
